PMC6454087

Biological target: mouse rec1c sNASP variant protein (V281I, L282F) (mouse)
Experiment: BLI; Octet K2, 30 C; sNASP WT or variant immobilised on aminopropylsilane (APS) biosensors, histones in assay buffer at various concentrations (62.5 to 1,000 nM shown for H4), association 240 s; n = 4

## mouse H3.1/H4 tetramer complex (from UniProt P68433 1-136; P62806 1-103)
  Kd: 14.5 nM
  kon: 37200 M⁻¹ s⁻¹

## mouse histone H4 (from UniProt P62806 1-103) (natural protein)
  Kd: 23.2 nM
  kon: 15900 M⁻¹ s⁻¹
